Results as given in patent US20100008917A1 (published 2010).

T1: human IL-27 (huIL-27), as used in Example 5 (human, UniProt Q14213 21-229; Q8NEV9 29-243, limits assumed)
T1 sequence (looked up) 1: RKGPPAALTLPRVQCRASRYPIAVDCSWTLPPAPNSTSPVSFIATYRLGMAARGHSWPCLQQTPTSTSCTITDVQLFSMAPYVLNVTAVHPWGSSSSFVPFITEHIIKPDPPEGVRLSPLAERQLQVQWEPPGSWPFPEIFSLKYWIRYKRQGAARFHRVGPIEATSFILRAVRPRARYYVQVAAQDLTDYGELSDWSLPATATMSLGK
T1 sequence (looked up) 2: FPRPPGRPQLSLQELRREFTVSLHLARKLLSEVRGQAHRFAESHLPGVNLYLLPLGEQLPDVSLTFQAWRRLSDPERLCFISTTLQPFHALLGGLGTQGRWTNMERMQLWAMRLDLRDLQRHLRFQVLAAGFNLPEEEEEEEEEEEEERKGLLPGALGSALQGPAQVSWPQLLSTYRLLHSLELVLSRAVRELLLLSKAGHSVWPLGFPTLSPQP

T2: mouse IL-27 (muIL-27), as used in Example 5 (mouse, UniProt O35228 19-228; Q8K3I6 29-234, limits assumed)
T2 sequence (looked up) 1: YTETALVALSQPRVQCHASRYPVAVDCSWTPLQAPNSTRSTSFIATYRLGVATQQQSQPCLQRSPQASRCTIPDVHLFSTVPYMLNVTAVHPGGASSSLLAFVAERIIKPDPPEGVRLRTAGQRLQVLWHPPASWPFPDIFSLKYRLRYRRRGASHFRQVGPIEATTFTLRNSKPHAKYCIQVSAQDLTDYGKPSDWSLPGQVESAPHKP
T2 sequence (looked up) 2: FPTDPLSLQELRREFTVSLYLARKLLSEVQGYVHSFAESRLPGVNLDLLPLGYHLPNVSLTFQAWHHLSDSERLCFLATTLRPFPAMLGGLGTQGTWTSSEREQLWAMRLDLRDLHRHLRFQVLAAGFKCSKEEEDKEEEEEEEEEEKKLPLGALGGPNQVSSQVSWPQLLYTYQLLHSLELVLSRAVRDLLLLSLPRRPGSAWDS

B1: IL27RAm(mFc1) (Fc fusion)
chain: TRPHGSPGPLQCYSVGPLGILNCSWEPLGDLETPPVLYHQSQKYHPNRVWEVKVPSKQSWVTIPREQFTMADKLLIWGTQKGRPLWSSVSVNLETQMKPDTPQIFSQVDISEEATLEATVQWAPPVWPPQKALTCQFRYKECQAEAWTRLEPQLKTDGLTPVEMQNLEPGTCYQVSGRCQVENGYPWGEWSSPLSFQTPFLDPEDVWVSGTVCETSGKRAALLVWKDPRPCVQVTYTVWFGAGDITTTQEEVPCCKSPVPAWMEWAVVSPGNSTSWVPPTNLSLVCLAPESAPCDVGVSSADGSPGIKVTWKQGTRKPLEYVVDWAQDGDSLDKLNWTRLPPGNLSTLLPGEFKGGVPYRITVTAVYSGGLAAAPSVWGFREELVPLAGPAVWRLPDDPPGTPVVAWGEVPRHQLRGQATHYTFCIQSRGLSTVCRNVSSQTQTATLPNLHSGSFKLWVTVSTVAGQGPPGPDLSLHLPDNRIREPRGPTIKPCPPCKCPAPNLLGGPSVFIFPPKIKDVLMISLSPIVTCVVVDVSEDDPDVQISWFVNNVEVHTAQTQTHREDYNSTLRVVSALPIQHQDWMSGKEFKCKVNNKDLPAPIERTISKPKGSVRAPQVYVLPPPEEEMTKKQVTLTCMVTDFMPEDIYVEWTNNGKTELNYKNTEPVLDSDGSYFMYSKLRVEKKNWVERNSYSCSVVHEGLHNHHTTKSFSRTPGK
B2: human IL27RA-Fc5 fusion protein (Fc fusion)
chain: QGSAGPLQCYGVGPLGDLNCSWEPLGDLGAPSELHLQSQKYRSNKTQTVAVAAGRSWVAIPREQLTMSDKLLVWGTKAGQPLWPPVFVNLETQMKPNAPRLGPDVDFSEDDPLEATVHWAPPTWPSHKVLICQFHYRRCQEAAWTLLEPELKTIPLTPVEIQDLELATGYKVYGRCRMEKEEDLWGEWSPILSFQTPPSAPKDVWVSGNLCGTPGGEEPLLLWKAPGPCVQVSYKVWFWVGGRELSPEGITCCCSLIPSGAEWARVSAVNATSWEPLTNLSLVCLDSASAPRSVAVSSIAGSTELLVTWQPGPGEPLEHVVDWARDGDPLEKLNWVRLPPGNLSALLPGNFTVGVPYRITVTAVSASGLASASSVWGFREELAPLVGPTLWRLQDAPPGTPAIAWGEVPRHQLRGHLTHYTLCAQSGTSPSVCMNVSGNTQSVTLPDLPWGPCELWVTASTIAGQGPPGPILRLHLPDNTEPKSSDKTHTCPPCPAPEAEGAPSVFLFPPKPKDTLMISRTPEVTCVVVDVSHEDPEVKFNWYVDGVEVHNAKTKPREEQYNSTYRVVSVLTVLHQDWLNGKEYKCKVSNKALPSSIEKTISKAKGQPREPQVYTLPPSRDELTKNQVSLTCLVKGFYPSDIAVEWESNGQPENNYKTTPPVLDSDGSFFLYSKLTVDKSRWQQGNVFSCSVMHEALHNHYTQKSLSLSPGK

How the values were obtained:
Assay in all cases: cell-based or functional assay
[1] = biological target: T1, human IL-27 (huIL-27), as used in …
[2] = biological target: T2, mouse IL-27 (muIL-27), as used in …
[3] = biological target: T1, human IL-27 (huIL-27), as used in …; remark: listed apart in the source
[4] = biological target: T2, mouse IL-27 (muIL-27), as used in …; remark: listed apart in the source

Binder | IC50 (nM), phospho-STAT3 in total human PBMCs stimulated with the EC90 of the ligand [1] | IC50 (nM), phospho-STAT3 in total human PBMCs stimulated with the EC90 of the ligand [2] | IC50 (nM), phospho-STAT3 in mouse spleens stimulated with the EC90 of the ligand [3] | IC50 (nM), phospho-STAT3 in mouse spleens stimulated with the EC90 of the ligand [4]
B1 | 1370 nM | 4.83 nM | 9.3 nM | 0.18 nM
B2 | 0.95 nM | 2.97 nM | 0.32 nM | 0.14 nM
